Measured values published in patent US20220195008A1 (published 2022).
Values belong to the binder of their own block, whether it stands above or below them.

Columns and labels:
[1] = target: T1, MAGE-A12 peptide on HLA-C*07:01 (human); assay: cytokine release
T1 peptide: VRIGHLYIL

[2] = target: T2, MAGE-A12 peptide on HLA-C*07:02 (human); assay: cytokine release
T2 peptide: VRIGHLYIL

[3] = target: T1, MAGE-A12 peptide on HLA-C*07:01; assay: killing

- binding result [1]: no recognition
- binding result [2]: recognises
B1: anti-MAGE-A12 TCR FM8 (TCR, V domains shown)
Valpha: AQTVTQSQPEMSVQEAETVTLSCTYDTSESDYYLFWYKQPPSRQMILVIRQEAYKQQNATENRFSVNFQKAAKSFSLKISDSQLGDAAMYFCAYRSAQGGSEKLVFGKGTKLTVNP
Vbeta: ETGVTQTPRHLVMGMTNKKSLKCEQHLGHNAMYWYKQSAKKPLELMFVYSLEERVENNSVPSRFSPECPNSSHLFLHLHTLQPEDSALYLCASSQTTYYNEQFFGPGTRLTVL

B2: anti-MAGE-A12 TCR 502 (TCR, V domains shown)
Valpha: GENVEQHPSTLSVQEGDSAVIKCTYSDSASNYFPWYKQELGKRPQLIIDIRSNVGEKKDQRIAVTLNKTAKHFSLHITETQPEDSAVYFCAASGATDKLIFGTGTRLQVFP
Vbeta: EADIYQTPRYLVIGTGKKITLECSQTMGHDKMYWYQQDPGMELHLIHYSYGVNSTEKGDLSSESTVSRIRTEHFPLTLESARPSHTSQYLCASSGGHEQYFGPGTRLTVT
- binding result [3]: recognises
